Assays:
[1] = test system: DR1, DR2, DR4, DR5, DRw6, DR7 and DR9 molecules; conditions: cited from earlier work
[2] = analytical ultracentrifugation of SAPN; assay type: physicochemical; conditions: for MW / No. of monomers: SAPN
Procedure: Three conditions were tested for assembling nanoparticles from the monomeric building block SEQ ID NO:33. The molecular weight (MW) of the SAPN was assessed by analytical ultracentrifugation: The peptide was dissolved at 0.42 mg/ml, 0.34 mg/ml, and 0.21 mg/ml, in 150 mM NaCl, 20 mM Tris, pH 7.5. The measured MW corresponds to SAPN composed of about 330 monomers, i.e. a nanoparticle with more monomers than needed for a regular polyhedron with 60 asymmetric units (Table 23).

[3] = assay type: physicochemical; conditions: DLS at pH 6.5
[4] = peptide 0.21 mg/ml in 150 mM NaCl, 20 mM Tris, pH 7.5
[5] = peptide 0.34 mg/ml in 150 mM NaCl, 20 mM Tris, pH 7.5
[6] = peptide 0.42 mg/ml in 150 mM NaCl, 20 mM Tris, pH 7.5

In the case of “CS.T3 peptide: 17 C-terminal amino acids of P. falciparum circum sporozoite protein CS with two cysteines replaced by alanines (RLLLRLEELERRLEELEKKIAKMEKASSVFNVVLAALRRRLEELAR; trimeric coiled coil with P. falciparum HTL epitope)”, the “pan DR activity in cell proliferation assay” value [1] is listed as “stimulatory”.

B1: MGHHHHHHGDWKWDGGLVPRGSDEMLRELQETNAALQDVRELLRQQVKQITFLRALLMGGRLLARLEELERRLEELERRLEELERAINTVDLELAALRRRLEELAR (protein)
chain: MGHHHHHHGDWKWDGGLVPRGSDEMLRELQETNAALQDVRELLRQQVKQITFLRALLMGGRLLARLEELERRLEELERRLEELERAINTVDLELAALRRRLEELAR
modifications: building block comprising His-tag, COMP and P5c6
In the case of B1, the “molecular weight of the SAPN” value ([2]; analytical ultracentrifugation) is reported as “about 4 MD” and the “number of monomers (peptide chains) per SAPN” value ([2]; from measured MW, 150 mM NaCl, 20 mM Tris, pH 7.5) is reported as “about 330”.

B2: SEQ ID NO: 33 (protein)
chain: B1 chain
modifications: building block comprising His-tag, COMP and P5c6
For B2, the MW [2, 4] was 4066 kDa, the No. of monomers [2, 4] was 323 and the MW [2, 5] was 4128 kDa. The No. of monomers [2, 5] was 328, the MW [2, 6] was 4331 kDa and the No. of monomers [2, 6] was 344.

B3: MGHHHHHHASWKWDGGLVPRGSWQTWNAKWDQWSNDWNAWRSDWQAWKDDWAFWRALWMGGRLLLRLEELERRLEELEKKIAKMEKASSVFNVVLAALRRRLEELARGGSGANANPNANPNANPNANP (protein)
chain: MGHHHHHHASWKWDGGLVPRGSWQTWNAKWDQWSNDWNAWRSDWQAWKDDWAFWRALWMGGRLLLRLEELERRLEELEKKIAKMEKASSVFNVVLAALRRRLEELARGGSGANANPNANPNANPNANP
modifications: pentameric coiled coil with tryptophane zipper and trimeric coiled coil with P. falciparum HTL epitope
B3 gave a particle diameter [3] of 44.6 nm and a polydispersity index [3] of 19.6%.
